According to patent US20260015399A1 (Boehringer Ingelheim, published 2026):
*1 amine or outer side, *2 acyl side, *3 side chain or, on linkers, in order; H or OH if unused. Side-chain parts run from the residue outwards. The star is where a group is joined. C18 diacid = O=C(O)CCCCCCCCCCCCCCCCC(=O)*; γGlu = O=C(O)[C@H](CCC(=O)[*:2])N[*:1]; Isovaleryl = CC(C)CC(=O)*; Ahx = NCCCCCC(=O)O

B1: Compound 36 (peptide)
peptide: Isovaleryl-APAK([Ahx-γGlu-C18 diacid])PEEAATPEEIQRYYVSLRHYYNWLTRQRY-NH2
SMILES: CC[C@H](C)[C@H](NC(=O)[C@H](CCC(=O)O)NC(=O)[C@H](CCC(=O)O)NC(=O)[C@@H]1CCCN1C(=O)[C@@H](NC(=O)[C@H](C)NC(=O)[C@H](C)NC(=O)[C@H](CCC(=O)O)NC(=O)[C@H](CCC(=O)O)NC(=O)[C@@H]1CCCN1C(=O)[C@H](CCCCNC(=O)CCCCCNC(=O)CC[C@H](NC(=O)CCCCCCCCCCCCCCCCC(=O)O)C(=O)O)NC(=O)[C@H](C)NC(=O)[C@@H]1CCCN1C(=O)[C@H](C)NC(=O)CC(C)C)[C@@H](C)O)C(=O)N[C@@H](CCC(N)=O)C(=O)N[C@@H](CCCNC(=N)N)C(=O)N[C@@H](Cc1ccc(O)cc1)C(=O)N[C@@H](Cc1ccc(O)cc1)C(=O)N[C@H](C(=O)N[C@@H](CO)C(=O)N[C@@H](CC(C)C)C(=O)N[C@@H](CCCNC(=N)N)C(=O)N[C@@H](Cc1c[nH]cn1)C(=O)N[C@@H](Cc1ccc(O)cc1)C(=O)N[C@@H](Cc1ccc(O)cc1)C(=O)N[C@@H](CC(N)=O)C(=O)N[C@@H](Cc1c[nH]c2ccccc12)C(=O)N[C@@H](CC(C)C)C(=O)N[C@H](C(=O)N[C@@H](CCCNC(=N)N)C(=O)N[C@@H](CCC(N)=O)C(=O)N[C@@H](CCCNC(=N)N)C(=O)N[C@@H](Cc1ccc(O)cc1)C(N)=O)[C@@H](C)O)C(C)C
B2: Compound 38 (peptide)
peptide: Isovaleryl-APEK([Ahx-γGlu-C18 diacid])PEEDATPEELQEYYVSLRHYYNWLTRQRY-NH2
SMILES: CC(C)CC(=O)N[C@@H](C)C(=O)N1CCC[C@H]1C(=O)N[C@@H](CCC(=O)O)C(=O)N[C@@H](CCCCNC(=O)CCCCCNC(=O)CC[C@H](NC(=O)CCCCCCCCCCCCCCCCC(=O)O)C(=O)O)C(=O)N1CCC[C@H]1C(=O)N[C@@H](CCC(=O)O)C(=O)N[C@@H](CCC(=O)O)C(=O)N[C@@H](CC(=O)O)C(=O)N[C@@H](C)C(=O)N[C@H](C(=O)N1CCC[C@H]1C(=O)N[C@@H](CCC(=O)O)C(=O)N[C@@H](CCC(=O)O)C(=O)N[C@@H](CC(C)C)C(=O)N[C@@H](CCC(N)=O)C(=O)N[C@@H](CCC(=O)O)C(=O)N[C@@H](Cc1ccc(O)cc1)C(=O)N[C@@H](Cc1ccc(O)cc1)C(=O)N[C@H](C(=O)N[C@@H](CO)C(=O)N[C@@H](CC(C)C)C(=O)N[C@@H](CCCNC(=N)N)C(=O)N[C@@H](Cc1c[nH]cn1)C(=O)N[C@@H](Cc1ccc(O)cc1)C(=O)N[C@@H](Cc1ccc(O)cc1)C(=O)N[C@@H](CC(N)=O)C(=O)N[C@@H](Cc1c[nH]c2ccccc12)C(=O)N[C@@H](CC(C)C)C(=O)N[C@H](C(=O)N[C@@H](CCCNC(=N)N)C(=O)N[C@@H](CCC(N)=O)C(=O)N[C@@H](CCCNC(=N)N)C(=O)N[C@@H](Cc1ccc(O)cc1)C(N)=O)[C@@H](C)O)C(C)C)[C@@H](C)O

Molecular target: T1, human NPY2 receptor (human, UniProt P49146 1-381)
T1 construct: whole, on cells; also called hNPY2-R; hNPY2R
T1 sequence (looked up): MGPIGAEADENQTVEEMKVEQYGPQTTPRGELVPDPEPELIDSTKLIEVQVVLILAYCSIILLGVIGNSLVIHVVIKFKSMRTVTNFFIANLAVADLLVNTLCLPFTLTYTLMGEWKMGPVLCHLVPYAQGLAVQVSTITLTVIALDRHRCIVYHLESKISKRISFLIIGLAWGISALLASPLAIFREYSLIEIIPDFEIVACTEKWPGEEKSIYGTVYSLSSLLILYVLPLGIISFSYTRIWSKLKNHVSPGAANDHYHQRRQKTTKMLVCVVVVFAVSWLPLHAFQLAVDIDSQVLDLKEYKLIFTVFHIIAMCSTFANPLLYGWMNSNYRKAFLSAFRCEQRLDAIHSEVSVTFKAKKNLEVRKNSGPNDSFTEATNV
Experiment: RLB: displacement of 125I-PYY(1-36) from hNPY2R membranes

Row | Ki | Binder
1 | 1.25 nM | B1
2 | 12.4 nM | B2
